These results are taken from the supplement of paper PMC9170038.

This series has as its system MS2 coat protein. As to the kind of experiment: apparent KD of MS2 coat protein; designed switch direction (-1 OFF switch, 1 ON switch): -1; higher = weaker reporter binding. In short, it runs like this: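 The reported apparent KD is a per-design median over clusters, from curve fits of normalised cluster fluorescence. Protein titrations used SNAP-549-labelled MS2 coat protein, doubled from 0.7 or 1.5 nM to 3 µM, in Tris-HCl pH 7.5 buffer with KCl, MgCl2, BSA, DTT, tRNA and Tween-20, with no input, 200 uM small-molecule ligand, or an oligonucleotide input. The RNA switches were transcribed on Illumina chips by stalled E. coli RNA polymerase.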

[1] abbreviates: input ligand: microRNA oligo, concentration not stated.
[2] abbreviates: Eterna round: R95, input ligand: microRNA oligo, concentration not stated.
The mark [3] stands for this setting: Eterna round: R95, input ligand: FMN 200 uM.
[4] abbreviates: Eterna round: R95, input ligand: none.

As for “ACGAUGACCGAAAAGUGUCAACUGACAUGAGGAUCACCCAUGUAGGAUAUGGCUACGAAAAGUAGUCAGAAGGACAUGUCAUCA [Omei Exc(NG) 3 Av6] (Eterna round: R96, puzzle: Exclusion NG 3)”, the “apparent KD of MS2 coat protein” value runs as follows: (input ligand: FMN 200 uM) 17.6 nM; under setting [1], 10.5 nM; (input ligand: none) 15.4 nM.

Consider “ACGCAUUGCCAAAGGUAAUGCGUUACAUGAGGAUCACCCAUGUAGGAUAUGGUAGGCAAAGCUUACCAGAAGGACAUGAUAAUU [Mat - Exclusion NG 3 - Mod of JL - D7] (Eterna round: R96, puzzle: Exclusion NG 3)”, for which the “apparent KD of MS2 coat protein” value is, setting by setting: (input ligand: FMN 200 uM) 219 nM; under setting [1], 40 nM; (input ligand: none) 57 nM.

For the sequence “ACGCGUGAAGGAUAUACGCGGGCCCAAGCGGAUCACACCGCACAUGAGGAUCACCCAUGUAGAAGGUCGCAAAA [r4x2dt3] (Eterna round: R97, puzzle: Exclusion 2)”, the “apparent KD of MS2 coat protein” value is, setting by setting: (input ligand: FMN 200 uM) 33.4 nM; (input ligand: none) 13.9 nM.

Regarding “ACGCUGUGAGGAUAUACAUGAGGAUCACCCAUGUUAAGGAAGUCUUGGUUAAUUUGGAGUAGAAGGCGCUUAUU [JR_Ex3_Sub016] (Eterna round: R97, puzzle: Exclusion 3)”, the “apparent KD of MS2 coat protein” value came out at 31.5 nM (input ligand: FMN 200 uM) and 34.9 nM (input ligand: none).

Turning to “ACGUUUUUUGAGGAUAUGCGAUAGUUUUAUAUCGUAGAAGGCGAUACAUGAGGAUCACCCAUGUUUAUGGGCAU [LRO-Ex6-20] (puzzle: Exclusion 6)”, under setting [2], the “apparent KD of MS2 coat protein” value turned out to be 155 nM.

Turning to “ACUAAUUGAGGAUAUACAUUGAUUUACAUGAGGAUCACCCAUGUUCAAACAUGUAUUUAUGUAGAAGGCAGAAGAA [JR_Ex5_Sub065] (Eterna round: R97, puzzle: Exclusion 5)”, the “apparent KD of MS2 coat protein” value (input ligand: FMN 200 uM) worked out at 23 nM and the “apparent KD of MS2 coat protein” value (input ligand: none) turned out to be 17.5 nM.

For “ACUAGAUGAGGAUAUGCAUAUUUUCGUGUUCUUCUAGGUUAACAUGAGGAUCACCCAUGUAGAAGGCGUCUAUA [Exclusion 2 - 22] (puzzle: Exclusion 2)”, the “apparent KD of MS2 coat protein” value under setting [2] stood at 21.3 nM.

For the sequence “ACUAGCUUUUUGCAUAUUAGGUUUGUUGCUUCGUAUGUAACAUGAGGAUCACCCAUGUAUUACUGAUGUCGUCGUUU [JR_SV3TOV2_Sub091] (puzzle: Sensor v3, turn-off variant 2)”, the “apparent KD of MS2 coat protein” value reads like this: under setting [3], 20 nM; under setting [2], 17.3 nM; under setting [4], 16.9 nM.

As for “ACUAGGCGAGGAUAUACAUGCUUAACACAGCGAAAGCUGUGACAUGAGGAUCACCCAUGUAGAAGGCGCAAAUA [Enlaedondi] (puzzle: Exclusion 2)”, under setting [2], the “apparent KD of MS2 coat protein” value is 43.2 nM.

For the sequence “ACUCAAUAGUAGGAUAUCAUCAAACUAUUGUGAUGAGAAGGACUAACAUGAGGAUCACCCAUGUUAACGUGAAG [Mod of Brourd 4 - Jieux - Exclusion 6] (Eterna round: R97, puzzle: Exclusion 6)”, the “apparent KD of MS2 coat protein” value is, setting by setting: (input ligand: FMN 200 uM) 23 nM; (input ligand: none) 20.3 nM.

Turning to “ACUCCCAUCGUGAGGAUAUUGAAGCGGGAAGCCGGCAAGAAGGUACAUGAGGAUCACCCAUGUGUGAACAGGAC [Eternabot (L1) Solution 48] (Eterna round: R97, puzzle: Brourd's mod of Exclusion 4)”, the “apparent KD of MS2 coat protein” value runs as follows: (input ligand: FMN 200 uM) 14.5 nM; (input ligand: none) 14.9 nM.

For “ACUCGAGAAGGAUAUACAUGAGGAUCACCCAUGUUAACUCCCAAGGGCAUCUUAAAAGGUAGAAGGUCUUGAAA [Laonbeus] (puzzle: Exclusion 3)”, the “apparent KD of MS2 coat protein” value reads like this: under setting [3], 23.7 nM; under setting [2], 14 nM; under setting [4], 14.1 nM.

Turning to “ACUCUACAUGAGGAUCACCCAUGUGAGGAUAUCAAAGCCAGAGCGGAUCUCUGGUCCAUGAGAAGGUGCAUGGU [ElNandoxlusion 3 - Jieux - Exclusion 1] (Eterna round: R97, puzzle: Exclusion 1)”, the “apparent KD of MS2 coat protein” value by setting is: (input ligand: FMN 200 uM) 73.4 nM; (input ligand: none) 22.3 nM.

On to “ACUUACUGAGGAUAUACAUAGAUUUACAUGAGGAUCACCCAUGUUCCUCUAAGUAUAUAUGUAGAAGGCAGAAGAU [Mat - Exclusion 5 - JL Mod - D39] (Eterna round: R97, puzzle: Exclusion 5)”, for which the “apparent KD of MS2 coat protein” value (input ligand: FMN 200 uM) came out at 202 nM and the “apparent KD of MS2 coat protein” value (input ligand: none) came out at 116 nM.

As for “ACUUACUGAGGAUAUACAUAGAUUUACAUGAGGAUCACCCAUGUUCCUCUAAGUAUAUAUGUAGAAGGCAGAAGGG [Mat - Exclusion 5 - JL Mod - D41] (Eterna round: R97, puzzle: Exclusion 5)”, the “apparent KD of MS2 coat protein” value was 55.6 nM (input ligand: FMN 200 uM) and 166 nM (input ligand: none).

Turning to “ACUUAUAGAGGAUAUACAGAUUAUUACAUGAGGAUCACCCAUGUUCUUCAAUGUAUAUAUGUAGAAGGCUAAGGAA [JL-ex5-4.23 Malcolm mod] (Eterna round: R97, puzzle: Exclusion 5)”, the “apparent KD of MS2 coat protein” value by setting is: (input ligand: FMN 200 uM) 381 nM; (input ligand: none) 82.2 nM.

For the sequence “ACUUAUAGAGGAUAUACAGUUUAUUACAUGAGGAUCACCCAUGUUCUUCAAUGUAUAUAAGUAGAAGGCUAAGGAA [EX-5 Malc#5] (Eterna round: R96, puzzle: Exclusion 5)”, under setting [1], the “apparent KD of MS2 coat protein” value is 33.7 nM.

For “ACUUAUAGAGGAUAUACAGUUUAUUACAUGAGGAUCACCCAUGUUCUUCAAUGUAUAUAAGUAGAAGGCUAAGGAA [EX-5 Malc#5] (puzzle: Exclusion 5)”, the “apparent KD of MS2 coat protein” value under setting [3] amounted to 132 nM, the “apparent KD of MS2 coat protein” value under setting [2] worked out at 25.2 nM and the “apparent KD of MS2 coat protein” value under setting [4] is 30 nM.

“ACUUAUUGAGGAUAUACAGAUUAUUACAUGAGGAUCACCCAUGUUCUUCAAUGUAUAUAUGUAGAAGGCAGAAGUA [Mat - Exclusion 5 - JL Mod - D14] (Eterna round: R97, puzzle: Exclusion 5)”: the “apparent KD of MS2 coat protein” value worked out at 317 nM (input ligand: FMN 200 uM) and 88.9 nM (input ligand: none).

Consider “ACUUAUUGAGGAUAUACAUAAAUUUACAUGAGGAUCACCCAUGUUCUUCUAUGUAUAUAUGUAGAAGGCAGAAGAA [JL-ex5-4.31 Malcolm mod] (Eterna round: R97, puzzle: Exclusion 5)”, for which the “apparent KD of MS2 coat protein” value (input ligand: FMN 200 uM) worked out at 27 nM and the “apparent KD of MS2 coat protein” value (input ligand: none) was 18.5 nM.

Consider “ACUUAUUGAGGAUAUACAUAGAUUUACAUGAGGAUCACCCAUGUUCCUCUAUGUAUAUAUGUAGAAGGCAGAAGAA [JL-ex5-4.32 Malcolm mod] (Eterna round: R97, puzzle: Exclusion 5)”, for which the “apparent KD of MS2 coat protein” value is, setting by setting: (input ligand: FMN 200 uM) 26.7 nM; (input ligand: none) 15.7 nM.

Regarding “ACUUAUUGAGGAUAUACAUUAAAUUACAUGAGGAUCACCCAUGUUCUUCAAUGUAUAUAUGCAGAAGGCAGAAGAA [JL-ex5-4.28 Malcolm mod] (Eterna round: R97, puzzle: Exclusion 5)”, the “apparent KD of MS2 coat protein” value (input ligand: FMN 200 uM) turned out to be 13.4 nM and the “apparent KD of MS2 coat protein” value (input ligand: none) is 12.8 nM.

Turning to “ACUUGUUGUCCUUGAUAUUACAUGAGGAUCACCCAUGUUAUUGUGAUUAUGAUGUGUAAGUUUGUUGCUCGUCUUAU [JR_STOV1_Sub065] (Eterna round: R97, puzzle: Sensor, turn-off variant 1)”, the “apparent KD of MS2 coat protein” value (input ligand: FMN 200 uM) was 54.3 nM and the “apparent KD of MS2 coat protein” value (input ligand: none) worked out at 60.4 nM.

For the sequence “AGAAAGGAAGGAUAUACAAGAAAGCUGGGCAACGUCUCAGAACAUGAGGAUCACCCAUGUAGAAGGUCCAGGAA [Bienqura] (puzzle: Exclusion 2)”, the “apparent KD of MS2 coat protein” value under setting [2] is 22.6 nM.

For “AGAAAGUCAGGAUAUCGAAGGUAGUGGAGAGGAGUGUGGUACGAGAAGGGACAUGAGGAUCACCCAUGUAGGAG [JR_Exclusion4)Sub007] (puzzle: Exclusion 4)”, under setting [2], the “apparent KD of MS2 coat protein” value came to 31.1 nM.

As to “AGAAAUGCCCAUGGCCACAAGCUUCUUGCUUGUCUUACUACAUGAGGAUCACCCAUGUAACAUGGGCUCCUGAUAAU [Maonesra] (puzzle: Sensor v3, turn-off variant 2)”, the “apparent KD of MS2 coat protein” value by setting is: under setting [3], 11.8 nM; under setting [2], 10.1 nM; under setting [4], 11.1 nM.

Regarding “AGAAAUGCCCAUGGCCACAAGCUUUUUGCCUGUCUUACCACAUGAGGAUCACCCAUGUGACAUGGGCUCCUGAUAAU [Didilaeren] (puzzle: Sensor v3, turn-off variant 2)”, the “apparent KD of MS2 coat protein” value reads like this: under setting [3], 15.8 nM; under setting [2], 305 nM; under setting [4], 14.3 nM.

With “AGAAAUGCCCGUGACCACAAGCUUUUUGCUUGUCUUACUACAUGAGGAUCACCCAUGUAACAUGGGCUCCUGACAAU [Maleisar] (puzzle: Sensor v3, turn-off variant 2)”, the “apparent KD of MS2 coat protein” value reads like this: under setting [3], 14.7 nM; under setting [2], 9.6 nM; under setting [4], 12.5 nM.

Regarding “AGAAAUGUCCAUGGCCGCAAGCUUUUUACUUGUCUUACCACAUGAGGAUCACCCAUGUGACAUGGACUCCUUAUGAU [Sensor v3, turn-off variant 2 (MOD of Oranla v.3)] (puzzle: Sensor v3, turn-off variant 2)”, the “apparent KD of MS2 coat protein” value by setting is: under setting [3], 17 nM; under setting [2], 43 nM; under setting [4], 14.8 nM.

As for “AGAACAUGAGGAUCACCCAUGUCGCUUUGCCUACCAAACAGGGAGGAUAUGUAGGGCGCGCACCUACAGAAGGCCCAAACGGAA [Eternabot solution 13] (Eterna round: R96, puzzle: Exclusion NG 3)”, the “apparent KD of MS2 coat protein” value stood at 17 nM (input ligand: FMN 200 uM), 18.5 nM under setting [1] and 22.5 nM (input ligand: none).

As for “AGAAGACAUGAGGAUCACCCAUGUAAGGAUAUUGGAGGUUAGGGAUGCUGGAGUUGGACAAGAAGGUACAGGUG [JR_Exclu1_Sub091] (puzzle: Exclusion 1)”, the “apparent KD of MS2 coat protein” value under setting [2] was 46.9 nM.

Turning to “AGAAGACAUGAGGAUCACCCAUGUAAGGAUAUUGGAGGUUAGGGAUGCUGGAGUUGGGCAAGAAGGUACAGGUG [JR_Exclu1_Sub092] (puzzle: Exclusion 1)”, the “apparent KD of MS2 coat protein” value was found to be 46.9 nM under setting [3], 49.8 nM under setting [2] and 81 nM under setting [4].
